{"source": "paper PMC10516904", "about": "“Dual enzyme-powered chemotactic cross β amyloid based functional nanomotors” (Nature Communications, 2023)", "proteins": {"B1": {"name": "Ac-KLVFFAL-CONH2 (peptide)", "peptide": "Ac-KLVFFAL-NH2", "notes": "also called Ac-KL nanotubes; amylobots (chassis); source: short nanotubes by probe sonication"}}, "biological_target": "the molecule itself", "assay": "TEM, SEM, AFM, CD and FTIR of the assembled peptide; peptide assembled in 40% acetonitrile/water with 0.1% TFA for a month", "data": [{"protein": "B1", "values": [{"measurement": "binding result", "result": "binds"}]}]}
